Data published in publication PMC1669734 (Nucleic Acids Research, 2006).

Molecular target: T1, 35S-MCM (T.acidophilum MCM labeled with 35S-Met) (Thermoplasma acidophilum, UniProt Q9HK10 1-698, 35S-Met)
T1 sequence (looked up): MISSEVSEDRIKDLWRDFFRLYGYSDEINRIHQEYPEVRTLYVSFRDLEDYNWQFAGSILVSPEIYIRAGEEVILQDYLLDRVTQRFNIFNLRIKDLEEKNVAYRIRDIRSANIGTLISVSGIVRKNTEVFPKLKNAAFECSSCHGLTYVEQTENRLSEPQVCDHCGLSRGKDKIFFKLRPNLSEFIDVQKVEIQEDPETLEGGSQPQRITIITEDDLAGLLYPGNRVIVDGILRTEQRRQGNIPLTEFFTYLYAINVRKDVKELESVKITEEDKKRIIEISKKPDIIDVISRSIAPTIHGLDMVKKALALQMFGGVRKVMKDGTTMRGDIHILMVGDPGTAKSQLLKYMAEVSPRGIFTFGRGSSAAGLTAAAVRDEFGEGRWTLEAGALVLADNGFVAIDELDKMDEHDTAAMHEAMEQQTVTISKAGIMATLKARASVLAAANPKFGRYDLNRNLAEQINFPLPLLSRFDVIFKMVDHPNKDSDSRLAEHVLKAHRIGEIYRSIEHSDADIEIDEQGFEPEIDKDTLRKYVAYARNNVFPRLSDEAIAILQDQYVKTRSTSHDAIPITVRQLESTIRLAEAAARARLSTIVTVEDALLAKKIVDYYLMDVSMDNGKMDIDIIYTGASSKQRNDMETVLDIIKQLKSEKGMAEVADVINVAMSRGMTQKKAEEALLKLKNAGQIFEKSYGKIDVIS
Assay: pull-down

binding result: binds
B1: T.acidophilum Cdc6-2 (Ta0636), C-terminal six His-tag (natural protein, Thermoplasma acidophilum, UniProt Q9HKG3 1-404, looked up)
chain: MDNPFARFAGTRTIQANLSLLEENYVPDSFPHRENQINEMVTILSSIMRGSRPSNIIVYGKTGTGKTSTTKYVTKMLVEAASNVSVVYVNCEIYDSPYSILVAIANSAGEEKIPELGWPIDRIYRETVERVEKTGKFFIIILDEMDRLIKKNGGDSLYVLLKLMTDVDSVRVSMIGITNDTTVLENIDARIKSRLNQESIVFPPYNASEIRDIISSRLDKVLGPGVVDDTAINLCAAIGAQEHGDARKAIDLMRIAIEIAIRENRNKITENEIYEARERYEMNVLREAISTLPLHSKIVLLSAVVTQEIEPNSVITGEIYENYRRICDDLGFSPLSPRRISDLLTELADYGLLVMDDRNMGKYGRTRSFSVVHQAETIKKYLLEDENLSMFKSSKMPKQTRFDT
